The results in this text go back to article PMC441372.

For this test, the target named is endogenous gelsolin (mouse (endogenous in osteoclasts)) (UniProt P13020). In words: co-IP.
Sequence of endogenous gelsolin (mouse (endogenous in osteoclasts)) (P13020 26-780): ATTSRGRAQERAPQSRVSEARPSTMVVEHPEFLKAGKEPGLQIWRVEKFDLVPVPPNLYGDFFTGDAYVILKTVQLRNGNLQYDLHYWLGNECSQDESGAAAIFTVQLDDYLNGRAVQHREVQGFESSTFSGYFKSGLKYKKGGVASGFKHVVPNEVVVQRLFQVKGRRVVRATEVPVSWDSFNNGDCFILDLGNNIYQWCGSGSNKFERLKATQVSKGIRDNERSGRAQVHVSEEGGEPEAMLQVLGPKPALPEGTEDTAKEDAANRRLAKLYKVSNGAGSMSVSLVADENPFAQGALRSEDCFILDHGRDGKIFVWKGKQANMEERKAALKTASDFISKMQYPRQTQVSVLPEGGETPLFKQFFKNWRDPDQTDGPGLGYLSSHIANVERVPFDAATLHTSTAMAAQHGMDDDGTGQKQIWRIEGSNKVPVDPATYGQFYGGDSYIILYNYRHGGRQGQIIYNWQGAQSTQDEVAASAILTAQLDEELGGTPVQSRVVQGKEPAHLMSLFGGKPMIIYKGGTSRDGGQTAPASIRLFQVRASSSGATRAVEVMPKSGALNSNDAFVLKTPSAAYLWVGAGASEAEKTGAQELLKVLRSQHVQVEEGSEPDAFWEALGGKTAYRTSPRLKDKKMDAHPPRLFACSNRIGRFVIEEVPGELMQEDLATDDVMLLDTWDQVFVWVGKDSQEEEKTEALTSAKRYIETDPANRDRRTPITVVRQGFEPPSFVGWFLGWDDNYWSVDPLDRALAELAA

Take “actin (from UniProt P60710 1-375) (natural protein)”: the gelsolin/actin ratio of the EGTA-resistant complex (untransduced, OPN) amounted to 0.82 and the gelsolin/actin ratio of the EGTA-resistant complex (untransduced, PBS) came to 1.45.
